Values of other authors as cited in PMC6047922.

Target: ttRNH* Icore (Thermus thermophilus) (UniProt Q72IE1)
Assay: analytical ultracentrifugation

Kd: 150 µM
Substance: ttRNH* Icore (from UniProt Q72IE1)
